Measured values reported in US20250388669A1 (published 2025).

Legend:
CD19 = target: T1, CD19 (human, UniProt P15391 20-556); experiment: cell-based or functional assay
T1 sequence (looked up): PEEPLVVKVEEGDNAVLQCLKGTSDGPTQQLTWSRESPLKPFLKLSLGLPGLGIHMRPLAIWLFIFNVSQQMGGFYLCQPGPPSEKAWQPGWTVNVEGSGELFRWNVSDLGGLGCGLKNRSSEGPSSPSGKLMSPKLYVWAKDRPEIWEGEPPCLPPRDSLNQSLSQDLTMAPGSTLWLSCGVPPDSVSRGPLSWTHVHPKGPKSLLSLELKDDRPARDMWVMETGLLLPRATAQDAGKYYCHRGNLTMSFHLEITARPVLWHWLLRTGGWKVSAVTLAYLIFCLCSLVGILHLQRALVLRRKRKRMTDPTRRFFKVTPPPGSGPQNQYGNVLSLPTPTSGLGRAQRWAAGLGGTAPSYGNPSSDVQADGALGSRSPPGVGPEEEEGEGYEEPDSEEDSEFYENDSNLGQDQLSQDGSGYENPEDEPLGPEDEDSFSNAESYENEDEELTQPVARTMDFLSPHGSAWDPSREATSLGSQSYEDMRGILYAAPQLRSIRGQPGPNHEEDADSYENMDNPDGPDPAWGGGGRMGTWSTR

CD137 = target: T2, CD137 (human, UniProt Q07011 24-186); experiment: CD137 binding by FCM or ELISA
T2 construct: Reporter assays used GS-H2-huCD137 cells expressing human CD137; also called 4-1BB/CD137; huCD137

PD-L1 = target: T3, PD-L1 (human, UniProt Q9NZQ7 19-238, limits assumed); experiment: FCM or ELISA
T3 construct: The reporter assay used Raji cells expressing human PD-L1
T3 sequence (Q9NZQ7 19-238 limits assumed): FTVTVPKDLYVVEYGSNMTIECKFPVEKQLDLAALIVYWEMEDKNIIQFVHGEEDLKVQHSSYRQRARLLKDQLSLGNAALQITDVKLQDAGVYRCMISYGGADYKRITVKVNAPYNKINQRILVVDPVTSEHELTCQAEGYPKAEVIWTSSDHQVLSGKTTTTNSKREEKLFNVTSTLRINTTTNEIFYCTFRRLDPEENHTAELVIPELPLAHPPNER

Binder | EC50 of cytotoxicity (LDH release), Raji cells with human PBMCs, 48 hours (CD19) [pM] | binding result (CD137) | binding result (PD-L1)
Ly1966 (other, Tri-specific CD19/CD3/CD137: two CD19 Fabs, central CD3 Fv, terminal CD137 Fv) chain 1: QVQLQQSGAELVRPGSSVKISCKASGYAFSSYWMNWVKQRPGQGLEWIGQIWPGDGDTNYNGKFKGKATLTADESSSTAYMQLSSLASEDSAVYFCARRETTTVGRYYYAMDYWGQGTTVTVSSASTKGPSVFPLAPSSKSTSGGTAALGCLVKDYFPEPVTVSWNSGALTSGVHTFPAVLQSSGLYSLSSVVTVPSSSLGTQTYICNVNHKPSNTKVDKKVEPKSCGGGGSGGGGSGGGGSGGGGSEVQLVESGGGLVQPGGSLRLSCAASGFTFSTYAMNWVRQAPGKGLEWVGRIRSKYNNYATYYADSVKGRFTISRDDSKNSLYLQMNSLKTEDTAVYYCVRHGNFGNSYVSWFAYWGQGTLVTVSSGGGGSDKTHTCPPCPAPEAAGPSVFLFPPKPKDTLMISRTPEVTCVVVDVSHEDPEVKFNWYVDGVEVHNAKTKPREEQYNSTYRVVSVLTVLHQDWLNGKEYKCKVSNKALPAPIEKTISKAKGQPREPQVYTLPPSREEMTKNQVSLWCLVKGFYPSDIAVEWESNGQPENNYKTTPPVLDSDGSFFLYSKLTVDKSRWQQGNVFSCSVMHEALHNHYTQKSLSLSPGGGGGSGGGGSGGGGSGGGGSQVQLVQSGAEVKKPGASVKVSCKASGYTFAGFEMHWVRQAPGQGLEWMGAIDPKTGGTDYNQKFKDRVTMTRDTSISTAYMELSRLRSDDTAVYYCARDLGYFDVWGQGTLVTVSS chain 2: QVQLQQSGAELVRPGSSVKISCKASGYAFSSYWMNWVKQRPGQGLEWIGQIWPGDGDTNYNGKFKGKATLTADESSSTAYMQLSSLASEDSAVYFCARRETTTVGRYYYAMDYWGQGTTVTVSSASTKGPSVFPLAPSSKSTSGGTAALGCLVKDYFPEPVTVSWNSGALTSGVHTFPAVLQSSGLYSLSSVVTVPSSSLGTQTYICNVNHKPSNTKVDKKVEPKSCGGGGSGGGGSGGGGSGGGGSQAVVTQEPSLTVSPGGTVTLTCRSSTGAVTTSNYANWVQQKPGQAPRGLIGGTNKRAPWTPARFSGSLLGGKAALTITGAQAEDEADYYCALWYSNLWVFGGGTKLTVLGGGGSDKTHTCPPCPAPEAAGPSVFLFPPKPKDTLMISRTPEVTCVVVDVSHEDPEVKFNWYVDGVEVHNAKTKPREEQYNSTYRVVSVLTVLHQDWLNGKEYKCKVSNKALPAPIEKTISKAKGQPREPQVYTLPPSREEMTKNQVSLSCAVKGFYPSDIAVEWESNGQPENNYKTTPPVLDSDGSFFLVSKLTVDKSRWQQGNVFSCSVMHEALHNRFTQKSLSLSPGGGGGSGGGGSGGGGSGGGGSDIQMTQSPSSLSASVGDRVTITCRASQDIRSNLNWYQQKPGGAVKLLIYYTSRLHSGVPSRFSGSGSGTDYTLTISSLQPEDFATYFCQQSEKLPRTFGGGTKVEIR light: not shown | 10.8 | binds | –
Ly1967 (other) chain 1: QVQLQQSGAELVRPGSSVKISCKASGYAFSSYWMNWVKQRPGQGLEWIGQIWPGDGDTNYNGKFKGKATLTADESSSTAYMQLSSLASEDSAVYFCARRETTTVGRYYYAMDYWGQGTTVTVSSASTKGPSVFPLAPSSKSTSGGTAALGCLVKDYFPEPVTVSWNSGALTSGVHTFPAVLQSSGLYSLSSVVTVPSSSLGTQTYICNVNHKPSNTKVDKKVEPKSCGGGGSGGGGSGGGGSGGGGSEVQLVESGGGLVQPGGSLRLSCAASGFTFSTYAMNWVRQAPGKGLEWVGRIRSKYNNYATYYADSVKGRFTISRDDSKNSLYLQMNSLKTEDTAVYYCVRHGNFGNSYVSWFAYWGQGTLVTVSSGGGGSDKTHTCPPCPAPEAAGPSVFLFPPKPKDTLMISRTPEVTCVVVDVSHEDPEVKFNWYVDGVEVHNAKTKPREEQYNSTYRVVSVLTVLHQDWLNGKEYKCKVSNKALPAPIEKTISKAKGQPREPQVYTLPPSREEMTKNQVSLWCLVKGFYPSDIAVEWESNGQPENNYKTTPPVLDSDGSFFLYSKLTVDKSRWQQGNVFSCSVMHEALHNHYTQKSLSLSPGGGGGSGGGGSGGGGSGGGGSQVQLVQSGAEVKKPGASVKVSCKASGYTFAGFEMHWVRQAPGQGLEWMGAIDPKTGGTDYNQKFKDRVTMTRDTSISTAYMELSRLRSDDTAVYYCARDLGYFDVWGQGTLVTVSS chain 2: QVQLQQSGAELVRPGSSVKISCKASGYAFSSYWMNWVKQRPGQGLEWIGQIWPGDGDTNYNGKFKGKATLTADESSSTAYMQLSSLASEDSAVYFCARRETTTVGRYYYAMDYWGQGTTVTVSSASTKGPSVFPLAPSSKSTSGGTAALGCLVKDYFPEPVTVSWNSGALTSGVHTFPAVLQSSGLYSLSSVVTVPSSSLGTQTYICNVNHKPSNTKVDKKVEPKSCGGGGSGGGGSGGGGSGGGGSQAVVTQEPSLTVSPGGTVTLTCRSSTGAVTTSNYANWVQQKPGQAPRGLIGGTNKRAPWTPARFSGSLLGGKAALTITGAQAEDEADYYCALWYSNLWVFGGGTKLTVLGGGGSDKTHTCPPCPAPEAAGPSVFLFPPKPKDTLMISRTPEVTCVVVDVSHEDPEVKFNWYVDGVEVHNAKTKPREEQYNSTYRVVSVLTVLHQDWLNGKEYKCKVSNKALPAPIEKTISKAKGQPREPQVYTLPPSREEMTKNQVSLSCAVKGFYPSDIAVEWESNGQPENNYKTTPPVLDSDGSFFLVSKLTVDKSRWQQGNVFSCSVMHEALHNHYTQKSLSLSPGGGGGSGGGGSGGGGSGGGGSDIQMTQSPSSLSASVGDRVTITCRASQDIRSNLNWYQQKPGGAVKLLIYYTSRLHSGVPSRFSGSGSGTDYTLTISSLQPEDFATYFCQQSEKLPRTFGGGTKVEIR light: not shown | 8.9 | binds | –
Ly2438 (bispecific antibody, PD-L1/CD40: two PD-L1 Fabs (Ly076), central CD40 Fv (TM559)) chain 1: QVQLVQSGAEVKKPGASVKVSCKASGYTFTDFWMSWVRQAPGQGLEWMGQIYPNTGTTHSNEKFKGRVTMTRDTSTSTVYMELSSLRSEDTAVYYCARSYHISTTPNWFAYWGQGTLVTVSSASTKGPSVFPLAPSSKSTSGGTAALGCLVKDYFPEPVTVSWNSGALTSGVHTFPAVLQSSGLYSLSSVVTVPSSSLGTQTYICNVNHKPSNTKVDKKVEPKSCGGGGSGGGGSGGGGSGGGGSEVQLVESGGGLVQPGGSLRLSCAASGFTFTNYGLHWVRQAPGKGLEWVSSISPSGGVTYYRDSVKGRFTISRDNSKNTLYLQMNSLRAEDTAVYYCAKPFLGWGGANWIAHWGQGTLVTVSSGGGGSDKTHTCPPCPAPEAAGPSVFLFPPKPKDTLMISRTPEVTCVVVDVSHEDPEVKFNWYVDGVEVHNAKTKPREEQYNSTYRVVSVLTVLHQDWLNGKEYKCKVSNKALPAPIEKTISKAKGQPREPQVYTLPPSREEMTKNQVSLWCLVKGFYPSDIAVEWESNGQPENNYKTTPPVLDSDGSFFLYSKLTVDKSRWQQGNVFSCSVMHEALHNHYTQKSLSLSPG chain 2: QVQLVQSGAEVKKPGASVKVSCKASGYTFTDFWMSWVRQAPGQGLEWMGQIYPNTGTTHSNEKFKGRVTMTRDTSTSTVYMELSSLRSEDTAVYYCARSYHISTTPNWFAYWGQGTLVTVSSASTKGPSVFPLAPSSKSTSGGTAALGCLVKDYFPEPVTVSWNSGALTSGVHTFPAVLQSSGLYSLSSVVTVPSSSLGTQTYICNVNHKPSNTKVDKKVEPKSCGGGGSGGGGSGGGGSGGGGSDIQMTQSPSSLSASVGDRVTITCLASEDISNDLAWYQQKPGKAPKLLIYFVDRLLDGVPSRFSGSGSGTDFTLTISSLQPEDFATYYCQQSYKYPPTFGQGTKLEIKGGGGSDKTHTCPPCPAPEAAGPSVFLFPPKPKDTLMISRTPEVTCVVVDVSHEDPEVKFNWYVDGVEVHNAKTKPREEQYNSTYRVVSVLTVLHQDWLNGKEYKCKVSNKALPAPIEKTISKAKGQPREPQVYTLPPSREEMTKNQVSLSCAVKGFYPSDIAVEWESNGQPENNYKTTPPVLDSDGSFFLVSKLTVDKSRWQQGNVFSCSVMHEALHNRFTQKSLSLSPG light: DIQMTQSPSSLSASVGDRVTITCKASQNVYKKLEWYQQKPGKVPKVLIYHTNILQTGVPSRFSGSGSGTDYTLTISSLQPEDVATYYCYQWNSGPTFGGGTKVEIKRTVAAPSVFIFPPSDEQLKSGTASVVCLLNNFYPREAKVQWKVDNALQSGNSQESVTEQDSKDSTYSLSSTLTLSKADYEKHKVYACEVTHQGLSSPVTKSFNRGEC | – | – | binds
